In patent publication US20100189722A1 (Boehringer Ingelheim, published 2010):
Each block holds one binder with its values, some of them ahead of it.

Biological target: T1, CD37 antigen (cellular CD37 on Ramos Burkitt lymphoma cells; also on RPMI 8226 multiple myeloma cells) (human, UniProt P11049 1-281)
T1 sequence (looked up): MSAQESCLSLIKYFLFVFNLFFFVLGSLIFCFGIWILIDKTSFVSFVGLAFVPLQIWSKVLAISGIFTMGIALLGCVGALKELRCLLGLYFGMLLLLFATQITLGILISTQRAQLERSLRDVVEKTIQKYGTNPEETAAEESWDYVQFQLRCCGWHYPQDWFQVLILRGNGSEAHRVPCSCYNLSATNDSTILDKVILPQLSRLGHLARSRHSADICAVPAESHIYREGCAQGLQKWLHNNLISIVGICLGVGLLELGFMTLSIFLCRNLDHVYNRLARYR
Assay: cell-based or functional assay

- ADCC EC50 on RPMI 8226 multiple myeloma cells: ~0.025 µg/mL
B1: Fc-engineered humanized anti-CD37 antibody B2 (S239D/I332E) (antibody, human IgG1, kappa, V domains shown)
VH: AVQLVQSGAEVKKPGSSVKVSCKASGYSFTGYNMNWVRQAPGQGLEWMGNIDPYYGGTTYNRKFKGRVTLTVDKSSSTAYMELSSLRSEDTAVYYCARSVGPMDYWGQGTLVTVSS
VL: DIQMTQSPSSLSASVGDRVTITCRTSENVYSYLAWYQQKPGKAPKLLVSFAKTLAEGVPSRFSGSGSGTDFTLTISSLQPEDFATYFCQHHSDNPWTFGQGTKVEIKR

- ADCC EC50 on RPMI 8226 multiple myeloma cells: ~0.025 µg/mL
B2: Fc-engineered chimeric anti-CD37 antibody A2 (S239D/I332E) (antibody, human IgG1, kappa)
heavy: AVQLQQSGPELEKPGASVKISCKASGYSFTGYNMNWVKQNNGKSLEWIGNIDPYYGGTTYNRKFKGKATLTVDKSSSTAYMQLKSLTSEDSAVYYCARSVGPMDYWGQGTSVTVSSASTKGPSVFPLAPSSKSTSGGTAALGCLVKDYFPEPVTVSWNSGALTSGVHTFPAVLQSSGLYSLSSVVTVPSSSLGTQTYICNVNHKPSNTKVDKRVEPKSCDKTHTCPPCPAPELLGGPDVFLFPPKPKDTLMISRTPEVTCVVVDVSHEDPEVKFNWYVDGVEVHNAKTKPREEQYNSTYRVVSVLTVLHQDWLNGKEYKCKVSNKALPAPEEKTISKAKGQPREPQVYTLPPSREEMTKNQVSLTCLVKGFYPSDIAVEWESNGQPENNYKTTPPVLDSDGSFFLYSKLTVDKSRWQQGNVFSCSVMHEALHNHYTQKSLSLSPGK
light: DIQMTQSPASLSASVGETVTITCRTSENVYSYLAWYQQKQGKSPQLLVSFAKTLAEGVPSRFSGSGSGTQFSLKISSLQPEDSGSYFCQHHSDNPWTFGGGTELEIKRTVAAPSVFIFPPSDEQLKSGTASVVCLLNNFYPREAKVQWKVDNALQSGNSQESVTEQDSKDSTYSLSSTLTLSKADYEKHKVYACEVTHQGLSSPVTKSFNRGEC
